Experimental data: the supplement of paper PMC12042874
± gives the uncertainty stated by the source.

Assay: amyloid nucleation score (Sup35N fusion, yeast selection) (log enrichment); library NNK2; higher = more nucleation; inactive = no reads after selection
Method in brief: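 The nucleation score, computed with DiMSum, is the log enrichment of output over input reads, centred on the mode score of non-aggregating sequences. Sequences with under 100 input reads were dropped. Reads were generated by Illumina sequencing of plasmid inserts from psi-negative yeast with Sup35N fused to peptides of 20 random codons, induced with 100 μM copper sulfate for 24 hours and grown 7 days at 30°C on medium lacking adenine and uracil.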

Substance | amyloid nucleation score
RCTGDLGRVARFWYETVKLN | -0.066 ± 0.39
RCVGNCMMSLRAEYD | 2.8 ± 0.079
RCVTERFPDM | 0.408 ± 0.5
RCVYNTKVREMPVLVGLRQD | inactive
RDIRWIYEDTLISSGIWRSL | 2.62 ± 0.11
RDISIMHRRRMNGLFNY | inactive
RDMVTVVCTWEKWCCRFPDL | 0.063 ± 0.21
RDNFLNEY | -0.953 ± 0.36
RDREIVQSLLHVLSQASLFV | -0.456 ± 0.35
RDSKFRMPLKWKAFFMGVER | 1.17 ± 0.38
RDSQWGLSRKDFSHACVLTY | -0.408 ± 0.48
REALDHWVDRVTVRWVRICI | -0.474 ± 0.35
RECDKEFRQSSSCIDRRLGM | -0.156 ± 0.8
REFLCCGN | 3.36 ± 0.075
RERCC | inactive
RESARRKAYLLSKNGSNWLH | -0.249 ± 0.5
RFCAMTYERLCVFVIF | 0.197 ± 0.4
RFCRHRMRGILP | 1.06 ± 0.17
RFEFIVMSLW | 3.19 ± 0.06
RFEHGSTFGDDKL | -1.26 ± 1.1
RFMHGTTCHTKYHRHLSTET | 0.766 ± 0.23
RFNCHFIWNIRPEFRMNNDK | 5.61 ± 0.057

Substance | amyloid nucleation score
RFNMMKSKQMELSN | -0.504 ± 0.46
RFSCAEYVPVMT | 0.298 ± 0.56
RFTALADGYRFTLSLGIVSG | 2.28 ± 0.12
RFVVWRHFSWIATMLSTIPV | 1.13 ± 0.35
RGAAGILFTSLIFMSVYALI | -0.104 ± 0.49
RGEHRERCGDIGRYGMGRRA | 1.27 ± 0.14
RGIFSSVWLLRSIMFGVGSP | -0.016 ± 0.23
RGINDILRFKS | 0.494 ± 0.44
RGNMTLIETALAIVQSFSNH | 9.064 ± 0.035
RGREL | -1.66 ± 0.54
RGSGSVMNSGYEAASRRLGG | -0.12 ± 0.46
RGSRVLSFILLRISNWIFQD | -0.239 ± 0.76
RGYLTAT | -0.134 ± 0.53
RHFYRSKMAMVYGFHTAFTG | -0.582 ± 0.34
RHGVMLGAVGVGSNDGSFLS | 2.29 ± 0.28
RHSHRARKVGEWGNLCLVEK | 0.26 ± 0.21
RHTSMSGCMTVIMTGCEIPR | 1.13 ± 0.39
RIDVAI | -0.457 ± 0.76
RIFVIVAGNYYFLAGFGYLA | -1.74 ± 0.64
RIGCRRPRFDNEQQWARS | 5.62 ± 0.093
RIGMPMMSAYTMGLVTDRFT | 1.06 ± 0.4
RIKCRTLLGQFLMAVVIEMY | 0.309 ± 0.31

Substance | amyloid nucleation score
RIKGSGGPNVLGWFRMVLCS | 0.284 ± 1.1
RILFNRS | 0.107 ± 0.4
RILFRGHSVLKNWF | -1.86 ± 0.49
RILLLDLRYYCTTP | inactive
RINNS | -1.44 ± 0.45
RINQLLTPLTWQERGP | 3.38 ± 0.06
RISIPS | inactive
RIVGRSFYMQFGRVWDFLRS | -0.546 ± 0.61
RIVMLGFVN | -1.44 ± 0.54
RIYNYWTIARKFFRV | -1.24 ± 0.55
RIYRRNQWVPGGDYSKGINL | -0.892 ± 0.76
RKCFDRRDYIPKIGQIRMSC | -0.48 ± 0.39
RKCSLVAEWTGLLLNSFVHN | 1.19 ± 0.45
RKDLEVLNGLRICMVGSAPV | -0.055 ± 1.1
RKDSCCSVNRCDAMSFVRGI | 0.073 ± 1.1
RKLTIA | -0.887 ± 0.42
RKYTCSFRLFYRGVCFVT | -1.16 ± 0.76
RLALY | 1.45 ± 0.25
RLCAVITMVEVIYFSYYVWF | 0.013 ± 0.55
RLCWWLVWS | 0.166 ± 0.76
RLFNTYYSRSFASYGYWLHC | 0.47 ± 0.16
RLFRFPNVLHDLICNMYICA | 6.024 ± 0.049

Substance | amyloid nucleation score
RLGIFYKVDLSLVGKVPNST | 2.79 ± 0.17
RLGSRGSLSFYVHLTCWVEV | -0.27 ± 0.79
RLGWNGE | -0.709 ± 0.49
RLLFCGWLTN | -1 ± 1
RLLFVWV | 4.12 ± 0.087
RLNVL | -0.987 ± 0.53
RLPARLGSS | 0.23 ± 0.25
RLRGFIPLCTYIFPNFRGLL | -0.718 ± 0.65
RLRQMCFKRNSVKLLLWNRF | 0.409 ± 0.8
RLSIHKSFVFDLTRSALSTM | -0.293 ± 0.55
RLSYWFIKELGNTSDYDRAP | -0.541 ± 0.76
RLTSGIW | -0.814 ± 0.76
RLYKRLR | -1.19 ± 1.1
RLYNSQFIKYWNFSSRCCLL | 3.51 ± 0.098
RMCMR | 0.017 ± 0.34
RMCWELFT | 0.022 ± 0.34
RMDVISEKFVWANESNCGVA | 0.362 ± 0.25
RMETTKPIRSSGTSITAPNG | 1.53 ± 0.53
RMEVEFFVPW | 2.9 ± 0.11
RMFRFRRHSKHLEKLSSRFL | -0.222 ± 0.49
RMLFVHPVGYGCEAAVGSSW | 1.09 ± 0.23
RMLLIGIRCLIMSWHMLHN | -0.029 ± 0.37
